No end group written: not given here.
T1: Karyopherin beta2 (Kapβ2), full length, wild type (human, UniProt Q92973-2 1-890)
T1 construct: mature; Expressed as a GST fusion from pGEX-Tev and purified; Also used here for the Kapβ2 added in the GST pull-downs; also called Transportin
T1 sequence (looked up): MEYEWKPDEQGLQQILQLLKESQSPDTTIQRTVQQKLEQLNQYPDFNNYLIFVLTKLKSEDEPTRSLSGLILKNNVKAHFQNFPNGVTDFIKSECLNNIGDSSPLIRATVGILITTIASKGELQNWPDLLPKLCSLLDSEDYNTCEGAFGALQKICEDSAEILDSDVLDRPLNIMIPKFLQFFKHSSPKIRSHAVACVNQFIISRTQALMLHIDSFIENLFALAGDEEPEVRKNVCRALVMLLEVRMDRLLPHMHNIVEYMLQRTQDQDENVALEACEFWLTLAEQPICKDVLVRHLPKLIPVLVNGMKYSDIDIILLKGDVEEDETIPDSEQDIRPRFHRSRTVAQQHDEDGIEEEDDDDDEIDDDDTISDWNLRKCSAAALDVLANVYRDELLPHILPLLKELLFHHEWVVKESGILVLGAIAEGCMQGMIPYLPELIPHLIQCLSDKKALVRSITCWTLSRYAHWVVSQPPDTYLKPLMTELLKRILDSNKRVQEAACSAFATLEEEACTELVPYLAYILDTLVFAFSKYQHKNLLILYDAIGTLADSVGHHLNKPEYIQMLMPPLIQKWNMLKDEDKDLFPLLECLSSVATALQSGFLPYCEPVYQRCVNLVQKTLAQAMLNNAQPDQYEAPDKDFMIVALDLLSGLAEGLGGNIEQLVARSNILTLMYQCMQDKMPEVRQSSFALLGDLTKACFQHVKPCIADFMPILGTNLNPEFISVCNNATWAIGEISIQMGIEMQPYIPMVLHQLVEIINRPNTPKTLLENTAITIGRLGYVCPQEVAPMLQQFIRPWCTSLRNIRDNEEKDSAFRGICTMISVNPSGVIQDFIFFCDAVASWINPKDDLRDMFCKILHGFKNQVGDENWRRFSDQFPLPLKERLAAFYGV


Key:
[1] = molecular target: T1, Karyopherin beta2 (Kapβ2), full length, …; experiment: ITC; MBP-M9NLS(257-305) titrated into full length Kapβ2
Method: Substrate residues that make two or more sidechain contacts with Kapβ2 (F273, F281, R284, P288 and Y289) were systematically mutated to alanines.
The ITC studies used a MicroCal Omega VP-ITC calorimeter (MicroCal Inc., Northampton, Mass.). Proteins were dialyzed against buffer containing 20 mM Tris pH 7.5, 100 mM NaCl and 2 mM P-mercaptoethanol. […] Most ITC studies were done at 20° C. with 35 rounds of about 8 μl injections. […] Data was plotted and analyzed using MicroCal Origin software version 7.0, with a single binding site model.

[2] = molecular target: T1, Karyopherin beta2 (Kapβ2), full length, …; experiment: competition ITC (control); 154 µM MBP-hnRNP A1-NLS titrated into 12 µM Kapβ2 with MBP-hnRNP A1-NLS R284A/P288A/Y289A as displacement ligand
[3] = molecular target: T1, Karyopherin beta2 (Kapβ2), full length, …; experiment: competition ITC; 108 µM MBP-M9M titrated into 12 µM Kapβ2 with 18 µM MBP-hnRNP A1-NLS R284A/P288A/Y289A as displacement ligand
[4] = molecular target: T1, Karyopherin beta2 (Kapβ2), full length, …; experiment: competition ITC (107 pM versus 20 nM for hnRNP A1-NLS)
[5] = molecular target: T1, Karyopherin beta2 (Kapβ2), full length, …; experiment: competition ITC; repeat with 20 µM MBP-hnRNP A1-NLS R284A/P288A/Y289A as displacement ligand
[6] = molecular target: T1, Karyopherin beta2 (Kapβ2), full length, …; experiment: ITC; MBP-hnRNP M(41-70) titrated into full-length Kapβ2
Method: (§1) Quantitation of binding affinity with Isothermal Titration Calorimetry. Binding affinities for wild type and mutant MBP-hnRNP M-NLS were determined using Isothermal titration calorimetry (ITC). The experiments were performed using a MicroCal Omega VP-ITC calorimeter (MicroCal Inc., Northampton, Mass.). MBP-NLS proteins were dialyzed against buffer containing 20 mM Tris pH 7.5, 100 mM NaCl and 2 mM β-mercaptoethanol. […] All ITC experiments were done at 20° C. with 35 rounds of 8 μl injections. Data were plotted and analyzed using the single binding site model of MicroCal Origin software version 7.0.

[7] = molecular target: T1, Karyopherin beta2 (Kapβ2), full length, …; experiment: ITC; MBP-hnRNP M(41-70) mutant titrated into full-length Kapβ2; unit cell prints only n
Method: as §1

[8] = molecular target: T1, Karyopherin beta2 (Kapβ2), full length, …; experiment: ITC; MBP-hnRNP M(41-70) mutant titrated into full-length Kapβ2
Method: as §1

Binder | Kd [8] [nM] | further results
GGSYNDFGNYNNQSSNFGPMKGGNFGGRSSGPYGGGGQYFAKPRNQGGY (other, human, UniProt P09651-2 257-305, looked up, not shown: large carriers, MBP fusion of the NLS peptide; also called MBP-hnRNP A1-NLS; wildtype hnRNP A1-NLS) [MBP-M9NLS(257-305) wild type] |  | Kd [1]: 42 nM; Kd [2]: 20 nM
GPGYSGGSRGYGSGGQGYGNQGSGYGGSFEPYANPTKR (designed binder) [MBP-M9M] |  | Kd [3]: 0.107 nM; fold tighter binding against natural NLS (hnRNP A1-NLS) [4]: 200 fold; Kd [5]: 0.111 nM
ERPAQNEKRKEKNIKRGGNRFEPYANPTKR (other, human, UniProt P52272 41-70, looked up, not shown: large carriers, also: MBP fusion partner, not in chain, range 41-70; also called MBP-hnRNP M-NLS; hnRNP M-NLS) [MBP-hnRNP M(41-70) wild type] |  | Kd [6]: 10 nM
ERPAQNEKRKEKNIKRGGNRFEPYANATKR (other, not shown: large carriers; small tags and cut ends, also: MBP fusion partner, not in chain) [MBP-hnRNP M(41-70) P67A] |  | Kd [7]: 8.7 nM
ERPAQNEKRKEKAIKRGGNRFEPYANPTKR (other, not shown: large carriers; small tags and cut ends, also: MBP fusion partner, not in chain) [MBP-hnRNP M(41-70) N53A] | 17.1 | 
ERPAQNEKRAAAAIKRGGNRFEPYANPTKR (other, not shown: large carriers; small tags and cut ends, also: MBP fusion partner, not in chain, also called quadruple 50KEKN53/AAAA hnRNP M mutant) [MBP-hnRNP M(41-70) K50A/E51A/K52A/N53A] | 22.3 | 
ERPAQNEKRKEKNIKRGGNRAEAAANPTKR (other, not shown: large carriers; small tags and cut ends, also: MBP fusion partner, not in chain) [MBP-hnRNP M(41-70) F61A/P63A/Y64A] | 8600 | 
ERPAQNEKRKEKNIARGGNRFEPYANPTKR (other, not shown: large carriers; small tags and cut ends, also: MBP fusion partner, not in chain) [MBP-hnRNP M(41-70) K55A] | 7.6 | 
ERPAQNEKRKEKNAKRGGNRFEPYANPTKR (other, not shown: large carriers; small tags and cut ends, also: MBP fusion partner, not in chain) [MBP-hnRNP M(41-70) I54A] | 8.8 | 
ERPAQNEKRKEKNIKRGGNRFEAAANPTKR (other, not shown: large carriers; small tags and cut ends, also: MBP fusion partner, not in chain) [MBP-hnRNP M(41-70) P63A/Y64A] | 4500 | 
ERPAQNEKRKEKNIKAGGNRFEPYANPTKR (other, not shown: large carriers; small tags and cut ends, also: MBP fusion partner, not in chain) [MBP-hnRNP M(41-70) R56A] | 13.9 | 

More lines, main results first:

Kd [8] [nM] | Binder | further results
16.4 | ERPAQNEKRAEKNIKRGGNRFEPYANPTKR (other, not shown: large carriers; small tags and cut ends, also: MBP fusion partner, not in chain) [MBP-hnRNP M(41-70) K50A] | 
14.6 | ERPAQNEKRKEANIKRGGNRFEPYANPTKR (other, not shown: large carriers; small tags and cut ends, also: MBP fusion partner, not in chain) [MBP-hnRNP M(41-70) K52A] | 
11.2 | ERPAQNEKRKEKNIKRGGNRAEPYANPTKR (other, not shown: large carriers; small tags and cut ends, also: MBP fusion partner, not in chain) [MBP-hnRNP M(41-70) F61A] | 
1200 | ERPAQNEKRAAAAAAAGGNRFEPYANPTKR (other, not shown: large carriers; small tags and cut ends, also: MBP fusion partner, not in chain, also called all seven residues of 50KEKNIKR56 mutated to alanines) [MBP-hnRNP M(41-70) K50A/E51A/K52A/N53A/I54A/K55A/R56A] | 

From patent US20080015137A1 (University of Texas, published 2008)
